# Earlier results, collected in US20020119948A1, “METHOD FOR EXTENDING THE SATIETY OF FOOD BY ADDING A NUTRITIONAL COMPOSITION DESIGNED TO STIMULATE CHOLECYSTOKININ(CCK)” (PacificHealth Laboratories, Inc., priority 2000, published 2002).
# Test system: Individuals
# Conditions: CCK administered by injection
molecule,measurement,value
"cholecystokinin (peptide, UniProt P06307 21-115, looked up, Cholecystokinin) Cholecystokinin: QPVPPADPAGSGLQRAEEAPRRQLRVSQRTDGESRAHLGALLARYIQQARKAPSGRMSIVKNLQNLDPSHRISDRDYMGWMDFGRRSAEEYEYPS",decrease in caloric intake,16-22%
